Assay [1] concerns the target T1, Mota Fab.
T1 construct: also called Motavizumab Fab; Fab portion of Motavizumab
The assay is described as follows: SPR (Biacore 2000); koff/kon; scaffold coupled to chip, Motavizumab as analyte.

Assay [2] addresses T1, Mota Fab. In words: SPR (Biacore 2000); scaffold coupled to chip, Motavizumab as analyte.
Protocol: All experiments were carried out on a Biacore 2000 (GE Healthcare) at 25° C. with HBSEP (0.01 M HEPES pH 7.4, 0.15 M NaCl, 3 mM EDTA and 0.005% (v/v) Surfactant P20) (GE Healthcare) as running buffer. […] Samples of different protein concentrations were injected in duplicates over this surface at a flow rate of 50-100 μl/min. If necessary, surface regeneration was performed with two 60 seconds injections of 3 M MgCl₂ at a flow rate of 10 μl/min. One flow cell contained anti-human IgG only and its interaction with the analyte was used as reference. Alternatively, another format was used where the epitope where amine-coupled to the sensor chip and Mota Fab was injected with identical flow rates as mentioned above.
To test whether the functional site (mota epitope) was recreated with fidelity, binding affinities were assessed by Surface Plasmon Resonance (SPR) experiments (FIG. 6). […] (See Table 3) The scaffolds were coupled to the biacore chip and Motavizumab was used as analyte.

B1: FFL_007 (designed binder)
chain: GSLSDIRKDAERRFDKLVEAVKNKLDKMKAALRKEGQQEERMKDLMKFMRKEVEQLRKAMRNFLSEALSKINDMPITNDDKKLISNDLKKYDAIAEKKLEAMKADVERMATQGSWLEHHHHHH
B1: the Kd in the assay with Mota Fab [1] came out at 0.0941 nM. In the assay with Mota Fab [2], this molecule showed a koff of 0.000136 s⁻¹ and a kon of 1.45e+06 M⁻¹ s⁻¹.

B2: FFL_005 (designed binder)
chain: GSMSDIRKDLEERFDKLVEALKNKVDKMKAAFRKDQFHEERMKDWFKDLRKEVEQMRRAVRNYASEALSKINDLPITNDDKKLASNDVLKLVAEVWKKLEAILADVEAWFTQLEHHHHHH
Turning to B2, the Kd in the assay with Mota Fab [1] was found to be 0.0703 nM. For the same molecule, in the assay with Mota Fab [2], the koff amounted to 0.000209 s⁻¹ and the kon is 2.97e+06 M⁻¹ s⁻¹.

B3: FFL_001 (designed binder)
chain: GSRSDMRKDAERRFDKFVEAAKNKFDKFKAALRKGDIKEERRKDMKKLARKEAEQARRAVRNRLSELLSKINDMPITNDQKKLMSNDVLKFAAEAEKKIEALAADAEDKFTQGSW
notes: monomeric
B3 displayed a Kd in the assay with Mota Fab [1] of 0.03 nM. In the assay with Mota Fab [2], this molecule displayed a koff of 0.000119 s⁻¹ and a kon of 3.99e+06 M⁻¹ s⁻¹.

B4: FFL_002 (designed binder)
chain: GSLSDVRKDVEKRIDKALEAFKNKMDKEKAAFRKDPPSEERRKDKKKEFREEREQVRKAIRNVLSEALSKINDLPITNDKKKLVSNDVIKKVAEMKKKVELEVADVEKKVTQGSW
notes: Purified on Ni++ resin; no tag is stated for this construct
For the molecule B4, in the assay with Mota Fab [1], binding was put at a Kd of 0.47 nM. Further, in the assay with Mota Fab [2], the koff was determined as 0.000734 s⁻¹ and the kon is 1.56e+06 M⁻¹ s⁻¹.

B5: FFL_004 (designed binder)
chain: GSMSDARKDLEERLDKLLEAAKNKMDKFKAAMRKRGQREERKKDWAKIVRDEFEQFRKAVRNFLSEALSKINDYPITNDDKKLTSNDTKKFAAEVEKKLEAFKADVEEAATQ
notes: as for B4
Turning to B5, the Kd with Mota Fab [1] stood at 0.795 nM. In the assay with Mota Fab [2], the koff is 0.000832 s⁻¹ and the kon was determined as 1.05e+06 M⁻¹ s⁻¹.

B6: FFL_006 (designed binder)
chain: GSFSDIRKDAEDRADKAFEAAKNKFDKIKAAIRKDWPSEERAKDLMKKARYEMEQARRAIRNIESEALSKINDLPITNDQKKLASNDIIKEMARLFKKLEALMADIEILVTQ
notes: as for B4
For the molecule B6, binding with Mota Fab [1] was put at a Kd of 0.652 nM.

These data come from patent US20150050306A1 (University of Washington, published 2015).
